Residue numbers refer to the chain shown, from its start. Names and notes keep the numbering of the source.
T1: PaParE1 toxin, wild type (Pseudomonas aeruginosa, UniProt Q9I708 1-93)
T1 sequence: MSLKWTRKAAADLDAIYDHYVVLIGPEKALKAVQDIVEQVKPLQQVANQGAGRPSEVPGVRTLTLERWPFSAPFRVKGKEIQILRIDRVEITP

B1: mCherry fused to full length ParD1 (natural protein, Pseudomonas aeruginosa, UniProt Q9I707 1-75, looked up)
chain: MSTVVSFRADDALVAALDELARATHRDRPYHLRQALAQYLERQQWQVAAIDEGLADANAGRLLEHIEIEKRWGLQ
B2: PaParD1 antitoxin, wild type, His-tagged (natural protein)
chain: B1 chain
B3: PaParD1 I68A, His-tagged (natural protein, Pseudomonas aeruginosa, UniProt Q9I707 1-75, looked up)
chain: B1 chain with I68A

How the values were obtained:
PaParE1 toxin, wild type = biological target: T1, PaParE1 toxin, wild type; assay: BLI
SEC-MALS = biological target: the molecule itself; assay: SEC-MALS

Row | Binder | Kd (PaParE1 toxin, wild type) | stoichiometry N (SEC-MALS)
1 | B1 | 0.225 ± 0.0068 nM | 
2 | B2 |  | 2
3 | B3 |  | 2
4 | RQQWQVAAIDEGLADANAGRLLEHIEIEKRWGLQ (domain or fragment) [mCh-ParD1(42-75)] | 0.828 ± 0.55 nM | 

Reference: article PMC9805813 (Biochemistry, 2021)
